# According to US20230357348A1 (AstraZeneca / MedImmune, published 2023):
# Starred links: 1 amine or outer side, 2 acyl side, 3 side chain; linkers in the order of their positions; H or OH if unused. Non-standard residues stand in square brackets, D forms with d. Groups on a side chain read outwards from the residue. Primed or numbered codes have the meaning given here. No end group written: not given here. *: point of attachment. C18 diacid = O=C(O)CCCCCCCCCCCCCCCCC(=O)*; γGlu = O=C(O)[C@H](CCC(=O)[*:2])N[*:1]; Stearoyl = CCCCCCCCCCCCCCCCCC(=O)*; Palmitoyl = CCCCCCCCCCCCCCCC(=O)*; αMeF = C[C@](N)(Cc1ccccc1)C(=O)O; Myristoyl = CCCCCCCCCCCCCC(=O)*; PEG2′ = polyethylene glycol 2; AEEA = NCCOCCOCC(=O)O; Aib = CC(C)(N)C(=O)O
# B1: Peptide 13 (peptide)
# peptide: H[Aib]HGS[αMeF]TSDVSK[αMeF]LDSK([AEEA-AEEA-γGlu-C18 diacid])AARD[αMeF]VQ[Aib]IANT-NH2
# modifications: N-terminus assumed
# SMILES: CC[C@H](C)[C@H](NC(=O)C(C)(C)NC(=O)[C@H](CCC(N)=O)NC(=O)[C@@H](NC(=O)[C@](C)(Cc1ccccc1)NC(=O)[C@H](CC(=O)O)NC(=O)[C@H](CCCNC(=N)N)NC(=O)[C@H](C)NC(=O)[C@H](C)NC(=O)[C@H](CCCCNC(=O)COCCOCCNC(=O)COCCOCCNC(=O)CC[C@H](NC(=O)CCCCCCCCCCCCCCCCC(=O)O)C(=O)O)NC(=O)[C@H](CO)NC(=O)[C@H](CC(=O)O)NC(=O)[C@H](CC(C)C)NC(=O)[C@](C)(Cc1ccccc1)NC(=O)[C@H](CCCCN)NC(=O)[C@H](CO)NC(=O)[C@@H](NC(=O)[C@H](CC(=O)O)NC(=O)[C@H](CO)NC(=O)[C@@H](NC(=O)[C@](C)(Cc1ccccc1)NC(=O)[C@H](CO)NC(=O)CNC(=O)[C@H](Cc1c[nH]cn1)NC(=O)C(C)(C)NC(=O)[C@@H](N)Cc1c[nH]cn1)[C@@H](C)O)C(C)C)C(C)C)C(=O)N[C@@H](C)C(=O)N[C@@H](CC(N)=O)C(=O)N[C@H](C(N)=O)[C@@H](C)O
# Target: human GLP-1 receptor (hGLP-1R) (human, UniProt P43220 24-463)
# Assay: cell-based or functional assay
row,Binder,hGLP-1R EC50 (pM)
1,B1,15.9
2,HSQGS[αMeF]TSDVSKILDSK([PEG2′-PEG2′-γGlu-γGlu-Palmitoyl])AAQD[αMeF]VQ[Aib]IINT-NH2 [Peptide 118],1.07
3,HSQGS[αMeF]TSDVSKILDSK([PEG2′-PEG2′-γGlu-γGlu-Myristoyl])AAQD[αMeF]VQ[Aib]IINT-NH2 [Peptide 119],1.39
4,HSQGS[αMeF]TSDVSKILDSK([PEG2′-PEG2′-γGlu-Stearoyl])AAQD[αMeF]VQ[Aib]IINT-NH2 [Peptide 120],1.81
5,HSQGS[αMeF]TSDVSKILDSK([PEG2′-PEG2′-γGlu-Palmitoyl])AAQD[αMeF]VQ[Aib]IINT-NH2 [Peptide 121],1.5
6,HSQGS[αMeF]TSDVSKILDSK([PEG2′-PEG2′-γGlu-Myristoyl])AAQD[αMeF]VQ[Aib]IINT-NH2 [Peptide 122],1.42
7,H[Aib]QGS[αMeF]TSDVSKILDSK([PEG2′-PEG2′-γGlu-γGlu-Palmitoyl])AAQD[αMeF]VQ[Aib]IINT-NH2 [Peptide 125],0.575
8,H[Aib]QGS[αMeF]TSDVSKILDSK([PEG2′-PEG2′-γGlu-Stearoyl])AAQD[αMeF]VQ[Aib]IINT-NH2 [Peptide 127],0.998

# Target: human glucagon receptor (hGCGR) (human, UniProt P47871 26-477)
# Assay: cell-based or functional assay
# Chain of human glucagon receptor (hGCGR) (P47871 26-477): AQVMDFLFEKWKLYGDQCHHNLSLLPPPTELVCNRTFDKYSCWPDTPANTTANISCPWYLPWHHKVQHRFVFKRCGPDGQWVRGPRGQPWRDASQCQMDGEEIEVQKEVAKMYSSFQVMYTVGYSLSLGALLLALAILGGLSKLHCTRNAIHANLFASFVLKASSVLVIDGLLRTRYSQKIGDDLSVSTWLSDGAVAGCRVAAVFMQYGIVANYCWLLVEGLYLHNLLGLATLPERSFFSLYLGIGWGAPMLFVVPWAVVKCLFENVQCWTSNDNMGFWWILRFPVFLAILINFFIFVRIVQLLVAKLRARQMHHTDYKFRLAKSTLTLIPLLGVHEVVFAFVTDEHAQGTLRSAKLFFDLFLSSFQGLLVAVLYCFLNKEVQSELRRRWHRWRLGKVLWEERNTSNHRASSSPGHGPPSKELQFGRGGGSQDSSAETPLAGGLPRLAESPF
row,Binder,hGluc-R EC50 (pM)
1,B1,44
2,HSQGS[αMeF]TSDVSKILDSK([PEG2′-PEG2′-γGlu-γGlu-Palmitoyl])AAQD[αMeF]VQ[Aib]IINT-NH2 [Peptide 118],1.2
3,HSQGS[αMeF]TSDVSKILDSK([PEG2′-PEG2′-γGlu-γGlu-Myristoyl])AAQD[αMeF]VQ[Aib]IINT-NH2 [Peptide 119],1.7
4,HSQGS[αMeF]TSDVSKILDSK([PEG2′-PEG2′-γGlu-Stearoyl])AAQD[αMeF]VQ[Aib]IINT-NH2 [Peptide 120],2.62
5,HSQGS[αMeF]TSDVSKILDSK([PEG2′-PEG2′-γGlu-Palmitoyl])AAQD[αMeF]VQ[Aib]IINT-NH2 [Peptide 121],1.2
6,HSQGS[αMeF]TSDVSKILDSK([PEG2′-PEG2′-γGlu-Myristoyl])AAQD[αMeF]VQ[Aib]IINT-NH2 [Peptide 122],0.857
7,H[Aib]QGS[αMeF]TSDVSKILDSK([PEG2′-PEG2′-γGlu-γGlu-Palmitoyl])AAQD[αMeF]VQ[Aib]IINT-NH2 [Peptide 125],6.68
8,H[Aib]QGS[αMeF]TSDVSKILDSK([PEG2′-PEG2′-γGlu-Stearoyl])AAQD[αMeF]VQ[Aib]IINT-NH2 [Peptide 127],12.6
